# T1: recombinant His-tagged human IL2Rβ (human, UniProt P14784 27-239)
# T1 construct: also called hIL2Rβ; not shown: His tag
# T1 sequence (looked up): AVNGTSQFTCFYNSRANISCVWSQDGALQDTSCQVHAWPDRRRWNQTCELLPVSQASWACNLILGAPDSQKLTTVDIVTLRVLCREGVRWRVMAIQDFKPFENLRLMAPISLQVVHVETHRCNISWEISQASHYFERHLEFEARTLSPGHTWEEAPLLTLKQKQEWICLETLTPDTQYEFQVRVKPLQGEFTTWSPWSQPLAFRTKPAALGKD
# T2: human IL2Rβ Fc fusion protein (human, UniProt P14784 27-239)
# T2 construct: also called Recombinant Fc-tagged human IL2Rβ; not shown: Fc
# T2 sequence (looked up): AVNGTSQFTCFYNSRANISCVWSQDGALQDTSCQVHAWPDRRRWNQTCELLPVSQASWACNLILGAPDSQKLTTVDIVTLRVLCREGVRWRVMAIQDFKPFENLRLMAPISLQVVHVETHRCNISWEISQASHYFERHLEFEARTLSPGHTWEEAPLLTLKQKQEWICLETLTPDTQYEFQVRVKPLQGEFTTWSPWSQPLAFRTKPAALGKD
# T3: human IL2Rβ (human, UniProt P14784 27-239)
# T3 construct: also called IL2β; CD122
# T3 sequence (looked up): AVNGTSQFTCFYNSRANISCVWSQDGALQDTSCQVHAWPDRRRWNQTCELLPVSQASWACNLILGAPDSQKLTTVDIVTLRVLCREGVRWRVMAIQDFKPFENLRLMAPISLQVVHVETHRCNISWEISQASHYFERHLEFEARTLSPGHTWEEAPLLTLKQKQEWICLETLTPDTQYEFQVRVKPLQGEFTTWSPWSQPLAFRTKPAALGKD
# T4: human IL2Rα (human, UniProt P01589 22-213, limits assumed)
# T4 construct: also called IL2α; CD25
# T4 sequence (looked up): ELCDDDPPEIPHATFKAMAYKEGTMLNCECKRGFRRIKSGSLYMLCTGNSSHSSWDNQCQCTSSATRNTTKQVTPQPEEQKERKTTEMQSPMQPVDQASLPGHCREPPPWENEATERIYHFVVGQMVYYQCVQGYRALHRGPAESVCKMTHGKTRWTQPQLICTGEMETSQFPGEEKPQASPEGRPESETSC
# T5: human IL2Rα Fc fusion protein (human, UniProt P01589 22-213, limits assumed)
# T5 construct: also called Recombinant Fc-tagged human IL2Rα; not shown: Fc
# T5 sequence (looked up): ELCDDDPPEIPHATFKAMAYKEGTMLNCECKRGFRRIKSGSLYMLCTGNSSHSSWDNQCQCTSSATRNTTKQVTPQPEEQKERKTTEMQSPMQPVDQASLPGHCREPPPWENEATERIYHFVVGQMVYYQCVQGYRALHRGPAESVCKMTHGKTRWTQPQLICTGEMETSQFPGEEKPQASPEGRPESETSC
# Tests used:
# [1] = biological target: T1, recombinant His-tagged human IL2Rβ; assay: SPR (Biacore T200): Fc fusion captured on anti-hFc chip, IL2Rβ-HIS injected in 2-fold dilutions from 100 nM
# Protocol: Binding kinetics of monovalent IL2Rβ Fc fusion proteins have been analyzed by SPR technology with Biacore T200. Briefly, anti-hFc antibody was immobilized on flow cell 1 and 2. For each cycle, 1 ug/mL of IL2 Fc fusion protein was captured for 60 seconds at flow rate of 10 ul/min on flow cell 2 in 1×HBSP buffer on anti-hFc immobilized chip. 100 nM IL2Rα-HIS tagged or IL2Rβ-HIS tagged was 2-fold serial diluted and injected onto both reference flow cell 1 and IL2 Fc fusion protein were captured at flow cell 2 for 150 seconds at flow rate of 30 ul/mins. 300 seconds wash was applied after the last injection. The assay was set up with 8 serial diluted concentration points in 96 well format. The kinetics data was analyzed with Biacore T200 evaluation software 3.0. The specific binding response unit was derived from subtraction of binding to reference flow cell 1 from target flow cell 2 (FIGS. 39A-39D).
# [2] = biological target: T2, human IL2Rβ Fc fusion protein; assay: ELISA, Fc-tagged receptor coated, anti-HisTag-HRP
# Protocol: (§1) Recombinant Fc-tagged human IL2Rα and IL2Rβ were added in 25 uL of 1×PBS to wells of 384-well plate and incubated overnight at 4° C. to coat the plates. Plates were washed three times with 0.05% Tween20/1×PBS. Plates were blocked with 100 uL of SuperBlock for 1 hr at RT and then washed 3 times with 0.05% Tween20/1×PBS. IL2 mutants were diluted in 0.05% Tween 20/1×PBS from 1000 nM to 0 nM and added to plates for 2 hrs at room temperature. Plates were then washed 6 times with 0.05% Tween20/1×PBS. Anti-HisTag-HRP was diluted 1:5000 in 0.05% Tween20/1×PBS and added to plates for 1 hr at RT. Plates were then washed 6 times with 0.05% Tween 20/1×PBS, and TMB was added to develop blue color. Reactions were stopped with 2N […] and light absorbance at 450 nm was read on a BioTek plate reader.
# [3] = biological target: T3, human IL2Rβ; assay: SPR, single concentration
# [4] = biological target: T3, human IL2Rβ; assay: SPR, receptor captured on Protein A chip, mammalian-produced IL2
# Protocol: (§2) The assay was run with Biacore T200 control software version 2.0. For each cycle, 1 μg/mL of human IL2Rβ or IL2Rα was captured for 60 seconds at flow rate of 10 μL/min on flow cell 2 in 1×HBST buffer on Protein A sensor chip. Two-fold serial diluted HIS tag purified engineered IL2 mutant was injected onto both reference flow cell 1 and IL2Rβ or IL2Rα captured flow cell 2 for 150 seconds at flow rate of 30 μL/min followed by washing for 300 seconds. The flow cells were then regenerated with Glycine pH 2 for 40 seconds at a flow rate of 30 μL/mins. Eight concentration points from 0 to 100 nM were assayed for each IL2Rβ agonist clone 96-well plate format. The kinetics data was analyzed with Biacore T200 evaluation software 3000. The specific binding response unit was derived from subtraction of binding to reference flow cell 1 from target flow cell 2.
# [5] = biological target: T4, human IL2Rα; assay: as above
# Protocol: as §2
# [6] = biological target: T3, human IL2Rβ; assay: SPR, receptor captured on Protein A chip, E. coli-produced IL2
# Protocol: as §2
# [7] = biological target: T4, human IL2Rα; assay: as above
# Protocol: as §2
# [8] = biological target: T4, human IL2Rα; assay: SPR, IL2Rα captured on Protein A chip, IL2 at 100 nM
# Protocol: The binding kinetics of IL2Rα-reduced binding clones to IL2Rα was assessed utilizing SPR technology with a Biacore T200, software version 2.0. For each cycle, 1 ug/mL of human IL2Rα was captured for 60 seconds at a flow rate of 10 uL/min on flow cell 2 in 1×HBSP buffer on a Protein A sensor chip. 100 nM of each HIS and Flag tag purified IL2 mutant was injected onto both the reference flow cell 1 and IL2Rα captured flow cell 2 for 150 seconds at a flow rate of 30 uL/min followed by washing for 300 seconds. The flow cells were then regenerated with Glycine pH 2.0 for 60 seconds at a flow rate of 30 uL/min. A HBSP+ buffer was included with each sample as a baseline control. The assay was set up in a 96-well format. The kinetics data was analyzed with Biacore T200 evaluation software 3.0. The specific binding response unit was derived from subtraction of binding to reference flow cell 1 from IL2Rα flow cell 2 and subtraction of buffer control. […] Relative response (RU) was determined for each IL2Rα-reduced binding clone (FIG. 4, Table 3).
# [9] = biological target: T2, human IL2Rβ Fc fusion protein; assay: ELISA, receptor-Fc coated, anti-Flag HRP
# Protocol: (§3) Briefly, 384 well plate was immobilized with human IL2Rα and IL2Rβ Fc fusion proteins at a final concentration of 2 ug/mL in 1×PBS in total volume of 25 uL per well. The plate was incubated overnight at 4 C and blocked with 80 uL of superblock per well for 1 hour. […] Each dilution was added to IL2Rα or IL2Rβ wells in parallel in duplicates. The IL2 mutant binding was detected by adding 25 uL of anti-Flag HRP diluted at 1:5000 in 1×PBST. In between each step, the plate was washed three times with 1×PBST using a plate washer. The plate was then developed with 25 uL of TMB substrate for five minutes and stopped by adding 25 ul of 2N sulfuric acid. The plate was read at OD450 nm Biotek plate reader and the EC50 was analyzed with Prism 8.1 software to generate EC50 values (FIG. 15A for IL2Rα, and FIG. 15B for IL2Rβ, summarized in Table 9).
# [10] = biological target: T5, human IL2Rα Fc fusion protein; assay: ELISA, receptor-Fc coated, anti-Flag HRP
# Protocol: as §3
# [11] = biological target: T5, human IL2Rα Fc fusion protein; assay: ELISA, single point, Fc-tagged human IL2Rα coated, anti-His-HRP; concentration not printed (Example 14)
# Protocol: as §1
# [12] = biological target: T4, human IL2Rα; assay: SPR (Biacore T200), human IL2Rα, one trace per clone drawn, concentrations not printed (Example 13)
# [13] = biological target: T5, human IL2Rα Fc fusion protein; assay: ELISA, Fc-tagged receptor coated, anti-HisTag-HRP
# Protocol: as §1
# [14] = biological target: T3, human IL2Rβ; assay: SPR, IL2Rβ captured on Protein A chip
# Protocol: The assay was run with Biacore T200 control software version 2.0. For each cycle, 1 ug/mL of human IL2Rβ was captured for 60 seconds at flow rate of 10 uL/min on flow cell 2 in 1×HBSP buffer on Protein A sensor chip. 100 nM of HIS and Flag tag purified each IL2 mutant was 2-fold serial diluted and injected onto both reference flow cell 1 and IL2Rβ captured flow cell 2 for 150 seconds at flow rate of 30 uL/min followed by washing for 300 seconds. The flow cells were then regenerated with Glycine pH2 for 60 seconds at a flow rate of 30 uL/min. The assay was set up with 8 serial diluted concentration points in 96-well format. The kinetics data was analyzed with Biacore T200 evaluation software 3.0. The specific binding response unit was derived from subtraction of binding to reference flow cell 1 from target flow cell 2 (FIGS. 16A-16F, Table 10).
binder,measurement,setting,value
EP214/EP215 (Fc fusion) APTSSSTKKTQLQLEHLLLDLQMILNGINNYKNPKLTEMLTFKFYMPKKATELKHLQCLEEELKPLEEVLNLAQSKNFHLTARDAVDNMRVIIQELKGSETTFMCEYADETATIVEFLNRWITFSQSIISTLTESKYGPPCPPCPAPEFEGAPSVFLFPPKPKDTLMISRTPEVTCVVVDVSQEDPEVQFNWYVDGVEVHNAKTKPREEQFQSTYRVVSVLTVLHQDWLNGKEYKCKVSNKGLPSSIEKTISKAKGQPREPQVYTLPPCQEEMTKNQVSLWCLVKGFYPSDIAVEWESNGQPENNYKTTPPVLDSDGSFFLYSALTVDKSRWQEGNVFSCSVMHEALHNHYTQKSLSLSLGK Fc: ESKYGPPCPPCPAPEFEGAPSVFLFPPKPKDTLMISRTPEVTCVVVDVSQEDPEVQFNWYVDGVEVHNAKTKPREEQFQSTYRVVSVLTVLHQDWLNGKEYKCKVSNKGLPSSIEKTISKAKGQPREPQVCTLPPSQEEMTKNQVSLSCAVKGFYPSDIAVEWESNGQPENNYKTTPPVLDSDGSFKLVSRLTVDKSRWQEGNVFSCSVMHEALHNHYTQKSLSLSLGK,Kd,[1],5.79 nM
same,koff,[1],0.00883 s⁻¹
same,kon,[1],1.53e+06 M⁻¹ s⁻¹
EP349 (ligand) APTSSSTKKTQLQLEHLLLDLQMILNGINNYKNPKLTRMLTAKFYMPKKATELKHLQCLEEELKPLEEVLNLAQSKNFHLTARDAIDNINVIVQELKGSETTFMCEYADETATIVEFLNRWITFSQSIISTLTGSHHHHHH,EC50,[2],948 nM
same,Kd,[3],2.79 nM
EP345 (ligand) APTSSSTKKTQLQLEHLLLDLQMILNGINNYKNPKLTVMLTFKFSMPKKATELKHLQCLEEELKPLEEVLNLAQSKNFHLTARDAIDNINVIVQELKGSETTFMCEYADETATIVEFLNRWITFSQSIISTLTGSHHHHHH,EC50,[2],152 nM
same,Kd,[3],12.5 nM
"EP003 (ligand, Produced in E. coli or mammalian cells; also called EP03; EP0003; not shown: C-terminal Flag and 6xHis tags) APTSSSTKKTQLQLEHLLLDLQMILNGINNYKNPKLTRMLTFKFYMPKKATELKHLQCLEEELKPLEEVLNLAQSKNFHLGVTDSISNAIVLARELKGSETTFMCEYADETATIVEFLNRWITFCQSIISTLT",Kd,[4],0.145 nM
same,koff,[4],0.000376 s⁻¹
same,kon,[4],2.59e+06 M⁻¹ s⁻¹
same,relative activity IL2Rβ (KD: fold) against WT IL2,[4],6970 fold
same,Kd,[5],302 nM
same,relative activity IL2Rα (KD: fold) against WT IL2,[5],-22.4 fold
same,Kd,[6],0.123 nM
same,koff,[6],0.00027 s⁻¹
same,kon,[6],2.18e+06 M⁻¹ s⁻¹
same,relative activity IL2Rβ (KD: fold) against WT IL2,[6],35200 fold
same,Kd,[7],21.4 nM
same,relative activity IL2Rα (KD: fold) against WT IL2,[7],-2.3 fold
same,RU (at 100 nM),[8],40.8 RU
same,Relevant binding to WT IL2 (%),[8],28.7%
same,EC50,[9],1.8 nM
same,EC50,[10],538 nM
"EP340 (ligand, not shown: His and Flag tags) APTSSSTKKTQLQLEHLLLDLQMILNGINNYKNPLLTDMLTRKFYMPKKATELKHLQCLEEELKPLEEVLNLAQSKNFHLTPRDAIDNIRVIILELKGSETTFMCEYADETATIVEFLNRWITFCQSIISTLT",binding result,[11],no binding (tested: not printed)
same,binding result,[12],no binding (tested: not printed)
same,EC50,[2],185 nM
"EP258 (ligand, not shown: His and Flag tags) APTSSSTKKTQLQLEHLLLDLQMILNGINNYKNPKLTRMLTFKFYMPKKATELKHLQCLEEELKPLEEVLNLAQSKNFHLTARDAISNINVIIQELKGSETTFMCEYADETATIVEFLNRWITFCQSIISTLT",EC50,[9],6.5 nM
same,EC50,[10],2.5 nM
same,EC50,[2],119 nM
same,EC50,[13],9.1 nM
same,Kd,[14],8.81 nM
same,koff,[14],0.0301 s⁻¹
same,kon,[14],3.42e+06 M⁻¹ s⁻¹

# From patent US20230002466A1 (ELPIS BIOPHARMACEUTICALS, published 2023)
